Measurements as given in patent US20230277633.

Experiments:
[1] = system: human IVIg (an intravenous human immunoglobulin)
[2] = molecular target: human IVIg (an intravenous human immunoglobulin); remark: listed apart in the source

Molecule: protease IdeZ (Genovis)
- enzymatic digestion of human IVIg in vitro, SDS-PAGE (10 ug IVIg per 1 Unit IdeZ, 37 C, 1 h) [1]: all the three proteases can effectively cleave human IVIg

B1: protease IdeE (protein)
chain: DDYQRNATEAYAKEVPHQITSVWTKGVTPLTPEQFRYNNEDVIHAPYLAHQGWYDITKAFDGKDNLLCGAATAGNMLHWWFDQNKTEIEAYLSKHPEKQKIIFNNQELFDLKAAIDTKDSQTNSQLFNYFRDKAFPNLSARQLGVMPDLVLDMFINGYYLNVFKTQSTDVNRPYQDKDKRGGIFDAVFTRGDQTTLLTARHDLKNKGLNDISTIIKQELTEGRALALSHTYANVSISHVINLWGADFNAEGNLEAIYVTDSDANASIGMKKYFVGINAHRHVAISAKKIEGENIGAQVLGLFTLSSGKDIWQKLSHHHHHH
- enzymatic digestion of human IVIg in vitro, SDS-PAGE (enzyme:IVIg 1:200 by mass, 37 C, 1 h) [2]: all the three proteases can effectively cleave human IVIg

B2: protease IdeS (protein)
chain: DSFSANQEIRYSEVTPYHVTSVWTKGVTPPANFTQGEDVFHAPYVANQGWYDITKTFNGKDDLLCGAATAGNMLHWWFDQNKDQIKRYLEEHPEKQKINFNGEQMFDVKEAIDTKNHQLDSKLFEYFKEKAFPYLSTKHLGVFPDHVIDMFINGYRLSLTNHGPTPVKEGSKDPRGGIFDAVFTRGDQSKLLTSRHDFKEKNLKEISDLIKKELTEGKALGLSHTYANVRINHVINLWGADFDSNGNLKAIYVTDSDSNASIGMKKYFVGVNSAGKVAISAKEIKEDNIGAQVLGLFTLSTGQDSWNQTNHHHHHHSSG
- enzymatic digestion of human IVIg in vitro, SDS-PAGE (enzyme:IVIg 1:200 by mass, 37 C, 1 h) [2]: all the three proteases can effectively cleave human IVIg
